The target of the assay is T1, extracellular domain of the recombinant protein NRP-1 from RnD systems (human, UniProt O14786 22-856).
T1 construct: Bought extracellular domain
Nature of the assay: Bio-layer interferometry (BLI), synthetic peptide and recombinant NRP-1 extracellular domain. Here is the method: Ligands preparation: proteins were incubated in a PBS buffer with a 1:3 ratio molar ratio of biotin (biotin-PEG4-NHS from Pierce EZ kit, prepared following the manufacturer's instructions). Free biotin was removed using a desalting column (Pierce). The biotinylated protein (called ligand) was immobilized onto streptavidin biosensor tips and dipped into wells containing the buffer with the analyte of interest (association) or without (dissociation).
From the best consensus mode, peptide sequences SEQ ID NO:3 for leptin and SEQ ID NO:4 for NRP-1 have been identified (FIG. 2). The Leptin (OB) binding domain (SEQ ID:3) to NRP-1 (SEQ ID:2) was validated by BLI using a synthetized peptide (SEQ ID:3) and the extracellular domain of the recombinant protein NRP-1 from RnD systems (FIG. 3).
(In general: Biolayer interferometry detects binding as a change in optical thickness at a sensor tip.)

The values below come from patent publication US20180230189A1 (INSERM INSTITUT NATIONAL DE LA SANT ET DE LA RECHERCHE …, published 2018).

T1 sequence (O14786 22-856 V179A limits assumed): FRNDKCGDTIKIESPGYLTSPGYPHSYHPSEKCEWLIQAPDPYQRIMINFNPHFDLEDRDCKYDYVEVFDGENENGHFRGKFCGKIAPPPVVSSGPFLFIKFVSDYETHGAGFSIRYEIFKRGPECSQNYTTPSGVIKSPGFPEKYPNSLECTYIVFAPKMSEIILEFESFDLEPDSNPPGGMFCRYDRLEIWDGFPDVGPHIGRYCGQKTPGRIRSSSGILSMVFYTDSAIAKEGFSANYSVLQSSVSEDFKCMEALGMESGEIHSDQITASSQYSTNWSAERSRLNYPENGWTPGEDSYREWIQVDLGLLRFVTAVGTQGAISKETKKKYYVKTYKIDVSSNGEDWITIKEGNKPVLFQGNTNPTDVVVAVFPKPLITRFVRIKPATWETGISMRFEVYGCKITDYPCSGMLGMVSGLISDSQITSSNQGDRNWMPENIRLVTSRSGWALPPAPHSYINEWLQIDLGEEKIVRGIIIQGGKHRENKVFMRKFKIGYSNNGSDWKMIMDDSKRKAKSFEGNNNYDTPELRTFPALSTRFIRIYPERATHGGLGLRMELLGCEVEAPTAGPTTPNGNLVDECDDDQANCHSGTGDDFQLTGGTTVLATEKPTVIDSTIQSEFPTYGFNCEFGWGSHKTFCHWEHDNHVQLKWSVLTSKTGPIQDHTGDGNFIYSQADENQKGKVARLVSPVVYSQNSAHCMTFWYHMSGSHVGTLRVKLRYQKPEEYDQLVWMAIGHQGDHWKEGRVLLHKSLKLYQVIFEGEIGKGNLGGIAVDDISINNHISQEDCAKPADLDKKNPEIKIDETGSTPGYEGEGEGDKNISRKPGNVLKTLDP

B1: synthetized leptin (OB) peptide SEQ ID NO:3 (peptide)
peptide: ENLRDLLHVLAFSKSCHLPWASGLETL
notes: Synthetic peptide derived from leptin, identified by docking and then tested by BLI
Regarding B1, the binding result is reported as “binds”.
